Laboratory results reported in patent US9809653B2, “Anti-LAMP1 antibodies and antibody drug conjugates, and uses thereof” (SANOFI, priority 2012, dated 2017).
Read-outs that look alike come from different tables or passages of the source.

Tests used:
Colo205 cells = experiment: Quenching of Alexa488 by anti-Alexa488 antibody, flow cytometry, internalized fraction; format: cell-based, human
Protocol: Quantification of internalization can also be performed by fluorescence-based quenching methods. In particular, a fluorescence-based Alexa488-quenching method has been described to analyze internalisation of targeting agents (Frejd et al. 2010, International Journal of Oncology, 36: 757-763). According to said description, internalization is calculated as the Mean fluorescence intensity (MFI) value of quenched cells (intracellular compartments only) divided by the MFI value of unquenched cells (both cell surface and intracellular compartments) at 37° C., according to the following formula: […]
The cells were washed twice in ice cold PBS in a cold centrifuge, and resuspended in 500 nM quenching anti-Alexa488 antibody diluted in ice cold PBS. All tubes were incubated for 1 h on ice. Without washing, all cells were fixed in two volumes of 2% paraformaldehyde for 10 min at room temperature. The paraformaldehyde was removed by one wash in PBS, and the cells were resuspended in PBS and analyzed in a flow cytometer (Guava® easyCyte 8HT Flow Cytometry System).
An internalization positive control experiment was done in parallel with Alexa488-labelled Transferrin (600 nM).
Mean fluorescence intensity (MFI) values obtained from the flow cytometry reading of 5×10^4 cells per tube were used for all calculations. Internalization was calculated as the MFI value of quenched cells (intracellular compartments only) divided by the MFI value of unquenched cells (both cell surface and intracellular compartments) at 37° C. as described in the formula: […]

[1] = cited from earlier work
[2] = molecular target: T1, cell surface LAMP1 on Patient-derived tumor xenografts and tumor cell lines (Homo sapiens, UniProt P11279); experiment: Antibody binding capacity (ABC) by FACS on patient-derived xenografts and tumor cell lines; conditions: FACS
T1 construct: endogenous in cells; host or cells: enzymatically dissociated patient-derived xenograft tumour cells (e.g. CR-IGR-034P, LUN-NIC-014P, BRE-IGR-0159) and tumour cell lines
T1 sequence (P11279 29-417): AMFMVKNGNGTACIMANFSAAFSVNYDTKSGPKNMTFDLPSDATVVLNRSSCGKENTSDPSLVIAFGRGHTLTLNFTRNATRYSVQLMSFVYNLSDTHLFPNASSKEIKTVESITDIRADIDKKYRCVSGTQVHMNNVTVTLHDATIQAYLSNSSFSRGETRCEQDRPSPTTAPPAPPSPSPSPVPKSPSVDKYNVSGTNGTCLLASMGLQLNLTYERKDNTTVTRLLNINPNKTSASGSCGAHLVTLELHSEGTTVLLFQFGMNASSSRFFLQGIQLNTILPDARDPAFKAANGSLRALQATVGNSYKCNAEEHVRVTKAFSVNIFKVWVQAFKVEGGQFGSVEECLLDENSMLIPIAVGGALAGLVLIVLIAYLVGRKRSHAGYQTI
Protocol: Antibody binding capacity of antibody was determined using Mouse IgG Calibrator kit (Biocytex #7208) or Human IgG Calibrator Kit (Biocytex #CP010) according to the manufacturer's instructions.
The panel of tumor cells comprises Patient-derived tumor xenografts from different origins and tumor cell lines. FIG. 2 illustrates the expression profile and Table 4 summarizes the antibody binding capacity results.
(§1) The panel of tumor cells comprises Patient-derived tumor xenografts from different origins and tumor cell lines.

[3] = molecular target: T2, patient-derived xenografts from colon, lung and breast origin and tumor cell lines (Homo sapiens, UniProt P11279); experiment: Binding to patient-derived xenograft tumor cells by flow cytometry (mean fluorescence); conditions: for Mean Florescence Intensity (MFI): FACS
T2 construct: endogenous in cells; host or cells: enzymatically dissociated patient-derived xenograft tumour cells (e.g. CR-IGR-034P, LUN-NIC-014P, BRE-IGR-0159) and tumour cell lines
T2 sequence (P11279 29-417): T1 sequence (P11279 29-417)
Protocol: Advanced human primary tumors from colon (CR-IGR-034P), lung (LUN-NIC-014P and breast (BRE-IGR-0159) indications were obtained from patient-derived xenograft (PDX) in mice as described in example 1. PDXs were enzymatically dissociated using collagenase Type IV (Invitrogen; #17104-019) and deoxyribonuclease I (Invitrogen, #18047-019) for 1 h at 4° C. Cell viability was estimated by Viacount application using Guava® easyCyte™ 8HT Flow Cytometry System. Tumoral cells were coated at 40,000 cells/well on 96-well High Bind plate (MSD L15XB-3) and 100 μL of antibody was added at 20 μg/mL for 45 min at 4° C. and washed three times with PBS 1% BSA. 100 μL of goat anti-human IgG conjugated with Alexa488 (Invitrogen; #A11013) was added for 45 min at 4° C. and washed three times with PBS 1% BSA. The antibody binding was evaluated after centrifugation and resuspension of cells by adding 200 μL/well PBS 1% BSA and read using Guava® easyCyte™ 8HT Flow Cytometry System. The mean fluorescence was recorded and plotted in the graph shown in FIG. 12 to illustrate the expression profile of the three mAbs onto the three PDXs.
as §1

[4] = molecular target: T3, LAMP1 in FFPE colon adenocarcinoma PDX CR-LRB-010P and human breast carcinoma (Homo sapiens, UniProt P11279); experiment: IHC on FFPE tumor tissue, LAMP1 membrane reinforcement; conditions: FFPE samples
T3 construct: from tissue; host or cells: human tumoral and non-tumoral tissue sections and PDX tumour sections (frozen-OCT, AFA, FFPE)
T3 sequence (P11279 29-417): T1 sequence (P11279 29-417)
Description: IHC analysis of tumor tissues from biobanks or from hospitals before or during patient treatment is routinely done with formalin-fixed paraffin-embedded (FFPE) samples. […] One of the reasons is probably the effect of the formalin fixative combined to the complexity of the protein. Samples processed in frozen OCT or AFA are not routinely prepared in hospitals. Therefore, there is a need to have a mAb that would allow complete and fast coverage of the FFPE tumor biobanks and hospital samples.
Rabbit polyclonal antibodies generated with peptides described in example 17.1.1 were tested by IHC on FFPE sample of colon adenocarcinoma patient derived xenograft CR-LRB-010P and human breast carcinoma. After antigen retrieval procedure and endogen biotins blocking steps, slides were incubated with the primary anti-antibody for 1 hour at 24° C. Negative controls were performed by omission of the primary antibody. The biotin free anti-rabbit UltraMap™ horseradish peroxidase (HRP) conjugate (760-4315, Ventana Medical Systems, Inc, USA) was used as secondary antibody system according to manufacturer's recommendations. A couterstaining step was done with hematoxylin (760-2037, Ventana Medical Systems, Inc, USA) and bluing reagent was applied (760-2037, Ventana Medical Systems, Inc, USA). Stained slides were dehydrated and coverslipped with cytoseal XYL (8312-4, Richard-Allan Scientific, USA).
As the same manner as in example 17.1.2, IHC screening was performed with the hybridoma supernatant to identify mouse monoclonal antibody showing LAMP1 membrane reinforcement on FFPE sample of colon adenocarcinoma patient derived xenograft CR-LRB-010P. The biotin free anti-mouse UltraMap™ horseradish peroxidase (HRP) conjugate (760-152, Ventana Medical Systems, Inc, USA) was used as secondary antibody system according to manufacturer's recommendations.

recombinant human LAMP2 = molecular target: T4, recombinant human LAMP2 (Homo sapiens, UniProt P13473); experiment: Specificity ELISA on recombinant human LAMP2; format: binding
T4 construct: purchased R&D Systems 6228-LM
Protocol: LAMP2 is the closest member of the LAMP family with 35% sequence identity to LAMP1. […] Anti-LAMP1 antibodies were added to the plates and detected by using rabbit anti-mouse IgG conjugated with horseradish peroxidase (Sigma; #A9044). Antibody binding was visualized by adding TMB-H2O2 buffer and read at a wavelength of 450 nm.
LAMP2 is the closest member of the LAMP family with 35% sequence identity to LAMP1. Specificity of MAb4 was evaluated by ELISA as described in example 4.6 with either LAMP1 or LAMP2 soluble proteins, as shown in FIG. 41.

[5] = Colo205, 4 h, 500 nM quenching anti-Alexa488 antibody

T4 sequence (P13473 with tags, fused parts or gaps): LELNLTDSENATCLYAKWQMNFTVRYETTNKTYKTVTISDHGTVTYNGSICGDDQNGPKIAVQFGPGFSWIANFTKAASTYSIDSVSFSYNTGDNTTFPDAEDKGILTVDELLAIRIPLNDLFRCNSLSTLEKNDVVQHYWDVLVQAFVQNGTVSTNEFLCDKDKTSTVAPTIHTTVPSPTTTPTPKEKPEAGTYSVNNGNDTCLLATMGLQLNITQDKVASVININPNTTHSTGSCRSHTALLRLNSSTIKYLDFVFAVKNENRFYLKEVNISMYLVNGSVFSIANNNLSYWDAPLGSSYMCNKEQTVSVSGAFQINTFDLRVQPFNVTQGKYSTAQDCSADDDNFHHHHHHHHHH

Alexa488-Transferrin: internalization positive control
MFI 4° C. Quencher (Colo205 cells; [5]): 8.98 | MFI 37° C. Quencher (Colo205 cells; [5]): 1210 | MFI 4° C. (Colo205 cells; Colo205, 4 h, unquenched): 35.78 | MFI 37° C. (Colo205 cells; Colo205, 4 h, unquenched): 1228 | total cell fluorescence that was intracellular (Colo205 cells; Colo205, after 4 h at 37° C.): about 98.5%

transferrin: transferrin, literature internalization reference
IS ([1]; cells incubated at 37° C. for one hour): 0.9 | IS ([1]; cells left on ice): 0

B1: MAb4: mouse monoclonal anti-LAMP1 antibody from hybridoma 88LAMP1-2, VH SEQ ID NO: 88, VL SEQ ID NO: 89 (antibody, listed as Mus musculus, V domains shown)
VH: QVQLQQSGAELVRPGTSVKVSCKASGYAFTNYLIEWVKQRPGQGLEWIGVINPGSGGTNYNEKFKGKATLTADKSSSTAYMQLSSLTSDDSAVYFCARYRSYDWYFDVWGAGTTVTVSS
VL: DIQMTQSPASLSASVGETVTITCRVSGNIHNYLAWYQQKQGKSPQLLVYNAKTLADGVPSRFSGSGSGTQYSLKINSLQPEDFGSYYCQHFWSNPYTFGGGTKLEIK
Antibody Binding Capacity (ABC) ([2]; CR-IGR-034P/colorectal PDX): 260 000 | Antibody Binding Capacity (ABC) ([2]; Colo205/colon cell line): 3000 | Antibody Binding Capacity (ABC) ([2]; LUN-NIC-006/lung PDX): 92 000 | Antibody Binding Capacity (ABC) ([2]; LUN-NIC-033/lung PDX): 87 000 | Mean Florescence Intensity (MFI) ([3]; BRE-IGR-0159/breast PDX): 400 | Mean Florescence Intensity (MFI) ([3]; CR-IGR-034P/colorectal PDX): 424 | Mean Florescence Intensity (MFI) ([3]; Colo205/colon cell line): 7 | Mean Florescence Intensity (MFI) ([3]; LUN-NIC-006/lung PDX): 162 | Mean Florescence Intensity (MFI) ([3]; LUN-NIC-033/lung PDX): 154 | binding to tumor cells by flow cytometry ([3]; PDX and tumor cell lines): able of binding to multiple tumor cells | LAMP1 membrane reinforcement in FFPE format by IHC [4]: displayed membrane reinforcement immunostaining | binding to LAMP2 (recombinant human LAMP2): No binding | difference between the EC50 towards LAMP1 versus LAMP2 (recombinant human LAMP2): more than 100 fold
